According to the supplement of paper PMC9112550, “Optimization of the antimicrobial peptide Bac7 by deep mutational scanning” (BMC Biology, 2022):

System: Escherichia coli TOP10
Experiment: shrunken log2 fold change of peptide-encoding DNA abundance (4.5 h post-induction vs induction); higher = less antimicrobial activity (less host growth inhibition)
Details: time post-induction: 4.5 h; library: site-saturation at positions 5, 18, 19, 20
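Also: peptides expressed intracellularly from a pBAD plasmid library in pooled LB shake-flask culture, induced with 0.3% L-arabinose, DNA abundance read by NGS, three biological replicates, DESeq2 with apeglm shrinkage.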

Sequence	shrunken log2 fold change
RRIRQRPPRLPRPRPRPRNWPRP	-0.0692
RRIRSRPPRLPRPRPRPKNYPRP	-0.547
RRIRCRPPRLPRPRPRPWELPRP	0.268
RRIRERPPRLPRPRPRPSQRPRP	-0.0321
RRIRHRPPRLPRPRPRPRCQPRP	0.219
RRIRIRPPRLPRPRPRPDWLPRP	-0.166
RRIRLRPPRLPRPRPRPRPNPRP	0.348
RRIRERPPRLPRPRPRPTGTPRP	-0.0482
RRIRLRPPRLPRPRPRPVMMPRP	-0.288
RRIRHRPPRLPRPRPRPLHHPRP	-0.554
RRIRARPPRLPRPRPRPACPPRP	0.255
RRIRTRPPRLPRPRPRPAWNPRP	-0.0659
RRIRVRPPRLPRPRPRPHTFPRP	-0.105
RRIRIRPPRLPRPRPRPPWWPRP	0.516
RRIRQRPPRLPRPRPRPWYPPRP	-0.278
RRIRHRPPRLPRPRPRPKTNPRP	-0.376
RRIRQRPPRLPRPRPRPNYSPRP	-0.397
RRIRQRPPRLPRPRPRPVAQPRP	0.24
RRIRMRPPRLPRPRPRPTQKPRP	0.168
RRIRGRPPRLPRPRPRPQMYPRP	0.0854
RRIRSRPPRLPRPRPRPNCSPRP	-0.0305
RRIRKRPPRLPRPRPRPCTFPRP	0.00111
RRIRERPPRLPRPRPRPICCPRP	-0.133
RRIRLRPPRLPRPRPRPRVQPRP	-0.143
RRIRIRPPRLPRPRPRPSKVPRP	-1

Sequence	shrunken log2 fold change
RRIRTRPPRLPRPRPRPKFHPRP	-0.327
RRIRHRPPRLPRPRPRPAAKPRP	0.218
RRIRMRPPRLPRPRPRPQVIPRP	-0.0579
RRIRRRPPRLPRPRPRPTDKPRP	0.0418
RRIRTRPPRLPRPRPRPMMDPRP	-0.141
RRIRHRPPRLPRPRPRPWSDPRP	-0.138
RRIRARPPRLPRPRPRPLPCPRP	0.13
RRIRNRPPRLPRPRPRPKYKPRP	-0.726
RRIRKRPPRLPRPRPRPGYEPRP	-0.0888
RRIRSRPPRLPRPRPRPPFDPRP	0.244
RRIRQRPPRLPRPRPRPRINPRP	-0.184
RRIRQRPPRLPRPRPRPADDPRP	-0.01
RRIRARPPRLPRPRPRPMDLPRP	-0.292
RRIRARPPRLPRPRPRPAAIPRP	0.845
RRIRGRPPRLPRPRPRPQLGPRP	0.649
RRIRCRPPRLPRPRPRPHEQPRP	-0.15
RRIRVRPPRLPRPRPRPDGFPRP	-0.0085
RRIRFRPPRLPRPRPRPHSWPRP	-0.0147
RRIRCRPPRLPRPRPRPQMAPRP	-0.117
RRIRARPPRLPRPRPRPQWWPRP	0.464
RRIRTRPPRLPRPRPRPYWKPRP	-0.000823
RRIRHRPPRLPRPRPRPSFNPRP	-0.583
RRIRDRPPRLPRPRPRPRTRPRP	0.0925
RRIRRRPPRLPRPRPRPRWVPRP	0.407
RRIRNRPPRLPRPRPRPWREPRP	0.262

Sequence	shrunken log2 fold change
RRIRQRPPRLPRPRPRPEFPPRP	-0.0498
RRIRRRPPRLPRPRPRPDFVPRP	-0.0983
RRIRWRPPRLPRPRPRPTKQPRP	0.0132
RRIRTRPPRLPRPRPRPQNNPRP	-0.716
RRIRFRPPRLPRPRPRPDGIPRP	-0.255
RRIRPRPPRLPRPRPRPYLRPRP	0.0823
RRIRWRPPRLPRPRPRPYWDPRP	-0.415
RRIRERPPRLPRPRPRPCVEPRP	-0.11
RRIRARPPRLPRPRPRPYKVPRP	-0.00867
RRIRLRPPRLPRPRPRPWFIPRP	-0.738
RRIRNRPPRLPRPRPRPRLIPRP	0.0319
RRIRIRPPRLPRPRPRPEPVPRP	0.14
RRIRVRPPRLPRPRPRPISWPRP	0.18
RRIRYRPPRLPRPRPRPSPHPRP	-0.49
RRIRIRPPRLPRPRPRPHHNPRP	-0.0464
RRIRWRPPRLPRPRPRPTDMPRP	0.00348
RRIRLRPPRLPRPRPRPKQMPRP	0.0542
RRIRYRPPRLPRPRPRPCKPPRP	-0.00151
RRIRDRPPRLPRPRPRPNPNPRP	-0.136
RRIRCRPPRLPRPRPRPMALPRP	-0.0797
RRIRHRPPRLPRPRPRPCAAPRP	-0.195
RRIRPRPPRLPRPRPRPWRAPRP	0.185
RRIRLRPPRLPRPRPRPGTWPRP	0.0714
RRIRGRPPRLPRPRPRPTPLPRP	0.747
RRIRKRPPRLPRPRPRPKSKPRP	0.45

Sequence	shrunken log2 fold change
RRIRDRPPRLPRPRPRPVCMPRP	0.219
RRIRNRPPRLPRPRPRPWIYPRP	-0.187
RRIRHRPPRLPRPRPRPDQEPRP	-0.01
RRIRPRPPRLPRPRPRPGTKPRP	0.453
RRIRMRPPRLPRPRPRPCVFPRP	-0.065
RRIRIRPPRLPRPRPRPTAYPRP	-0.425
RRIRERPPRLPRPRPRPMLNPRP	-0.106
RRIRWRPPRLPRPRPRPCFFPRP	0.0878
RRIRLRPPRLPRPRPRPTMGPRP	0.147
RRIRKRPPRLPRPRPRPHKSPRP	0.0371
RRIRRRPPRLPRPRPRPHCKPRP	0.298
RRIRKRPPRLPRPRPRPACIPRP	0.031
RRIRRRPPRLPRPRPRPFTAPRP	0.128
RRIRTRPPRLPRPRPRPWRMPRP	-0.139
RRIRFRPPRLPRPRPRPKHAPRP	0.416
RRIRNRPPRLPRPRPRPMWPPRP	-0.00481
RRIRERPPRLPRPRPRPQCFPRP	-0.702
RRIRSRPPRLPRPRPRPKDKPRP	-0.117
RRIRHRPPRLPRPRPRPTLPPRP	-0.00384
RRIRNRPPRLPRPRPRPVVVPRP	-0.11
RRIRARPPRLPRPRPRPIYRPRP	-0.0972
RRIRKRPPRLPRPRPRPDLEPRP	0.0158
RRIRERPPRLPRPRPRPWHWPRP	-0.0299
RRIRPRPPRLPRPRPRPPMEPRP	0.127
RRIRLRPPRLPRPRPRPRHMPRP	-0.287

Sequence	shrunken log2 fold change
RRIRSRPPRLPRPRPRPNSPPRP	-0.149
RRIRPRPPRLPRPRPRPACMPRP	0.165
RRIRQRPPRLPRPRPRPFYMPRP	-1.52
RRIRFRPPRLPRPRPRPTYRPRP	-8.67e-05
RRIRGRPPRLPRPRPRPGMPPRP	0.406
RRIRPRPPRLPRPRPRPQSVPRP	-0.0354
RRIRHRPPRLPRPRPRPWDIPRP	0.0726
RRIRPRPPRLPRPRPRPPYYPRP	-0.492
RRIRLRPPRLPRPRPRPVPYPRP	-0.2
RRIRHRPPRLPRPRPRPGRYPRP	-0.017
RRIRPRPPRLPRPRPRPHMQPRP	0.151
RRIRQRPPRLPRPRPRPGHMPRP	0.0335
RRIRVRPPRLPRPRPRPSTGPRP	-0.00698
RRIRWRPPRLPRPRPRPHFRPRP	0.0695
RRIRLRPPRLPRPRPRPSKAPRP	-0.0252
RRIRTRPPRLPRPRPRPTQCPRP	0.227
RRIRWRPPRLPRPRPRPTLWPRP	0.611
RRIRTRPPRLPRPRPRPTHEPRP	0.746
RRIRRRPPRLPRPRPRPYAMPRP	-0.121
RRIRGRPPRLPRPRPRPMTIPRP	0.0989
RRIRHRPPRLPRPRPRPCNGPRP	-0.00865
RRIRRRPPRLPRPRPRPADNPRP	0.111
RRIRSRPPRLPRPRPRPFLYPRP	-0.442
RRIRQRPPRLPRPRPRPDLMPRP	-0.08
RRIRTRPPRLPRPRPRPLVVPRP	0.193

Sequence	shrunken log2 fold change
RRIRFRPPRLPRPRPRPGHRPRP	0.0983
RRIRYRPPRLPRPRPRPEKYPRP	-0.00973
RRIRQRPPRLPRPRPRPLEHPRP	-0.109
RRIRGRPPRLPRPRPRPKVSPRP	0.787
RRIRARPPRLPRPRPRPFIDPRP	-0.554
RRIRNRPPRLPRPRPRPEYSPRP	-0.272
RRIRMRPPRLPRPRPRPVALPRP	0.711
RRIRLRPPRLPRPRPRPLLLPRP	-0.00929
RRIRMRPPRLPRPRPRPCWNPRP	0.236
RRIRARPPRLPRPRPRPQFMPRP	0.546
RRIRPRPPRLPRPRPRPKPKPRP	0.382
RRIRCRPPRLPRPRPRPVVQPRP	-0.235
RRIRHRPPRLPRPRPRPKNWPRP	0.136
RRIRMRPPRLPRPRPRPHANPRP	0.0143
RRIRKRPPRLPRPRPRPTDYPRP	0.124
RRIRLRPPRLPRPRPRPYDPPRP	-0.109
RRIRFRPPRLPRPRPRPKLEPRP	-0.0492
RRIRGRPPRLPRPRPRPQVRPRP	0.713
RRIRDRPPRLPRPRPRPPSEPRP	0.459
RRIRMRPPRLPRPRPRPTKAPRP	0.26
RRIRMRPPRLPRPRPRPVMPPRP	-0.0271
RRIRDRPPRLPRPRPRPHFFPRP	0.152
RRIRGRPPRLPRPRPRPRPYPRP	0.246
RRIRDRPPRLPRPRPRPNVSPRP	-0.00783
RRIRPRPPRLPRPRPRPCLAPRP	-0.109
